B1: zfSARM1 (zebrafish SARM1, zfSARM1 w.t.) (Danio rerio) (protein)
chain: DRLTVPEYVSSRLHNRRTAPDPRAVSPGISTDVQAVLDGSLPALRSAIRTLRSSKDTGDLEETRRAIAETFQLVEEAWVLPTVGRRVAEEICNRIRLDGGLELLLQLMQTPAVEITYESAKLLEQILVSENRDYVARMGLGVILNLTREQEDAQLARSVSGILEHMFKHTEETSAQLITNGALDTILYWCRGTDPTVLRHCAVALSNCAMYGGHRCQRLMIEKQAAEWLFPLAFSKEDELIRFHACLAVAVLAANREMEKEVVKSGTLELVEPFIASLDPDEFARNMLDSADSMQGRTAADLQHLLPLLDGTRLEGKCIAAFYLCVETSIKSRQRNTKIFQEIGAVQSLKRIVMYSSNATVCSLAKRALKMMSEEVPRRILSSVPNWKSGEVQTWLQQIGFSAFSERFQELQVDGDLLLNITEQDLIQDLGMTSGLTRKRFLRDLRVLKTYANYSTCDPNNLADWLADADPRFRQYTYGLVQSGVDRNNIVHITDQQLLTDCHVENGIHRAKILSAARRPSKPCLTDSQPKGPDVFISYRRTTGSQLASLLKVHLQLRGFSVFIDVEKLEAGRFEEKLITSVQRARNFILVLSANALDKCMGDVAMKDWVHKEIVTALNGKKNIVPVTDNFVWPDPTSLPEDMSTILKFNGIKWSHEYQEATIEKILRFLEGCPSQEKPDGAKTDKKEPQKK
B2: hSARM1 (hSARM1 w.t., near-intact, 26ERL...GPT724) (Homo sapiens) (protein)
chain: ERLAVPGPDGGGGTGPWWAAGGRGPREVSPGAGTEVQDALERALPELQQALSALKQAGGARAVGAGLAEVFQLVEEAWLLPAVGREVAQGLCDAIRLDGGLDLLLRLLQAPELETRVQAARLLEQILVAENRDRVARIGLGVILNLAKEREPVELARSVAGILEHMFKHSEETCQRLVAAGGLDAVLYWCRRTDPALLRHCALALGNCALHGGQAVQRRMVEKRAAEWLFPLAFSKEDELLRLHACLAVAVLATNKEVEREVERSGTLALVEPLVASLDPGRFARCLVDASDTSQGRGPDDLQRLVPLLDSNRLEAQCIGAFYLCAEAAIKSLQGKTKVFSDIGAIQSLKRLVSYSTNGTKSALAKRALRLLGEEVPRPILPSVPSWKEAEVQTWLQQIGFSKYCESFREQQVDGDLLLRLTEEELQTDLGMKSGITRKRFFRELTELKTFANYSTCDRSNLADWLGSLDPRFRQYTYGLVSCGLDRSLLHRVSEQQLLEDCGIHLGVHRARILTAAREMLHSPLPCTGGKPSGDTPDVFISYRRNSGSQLASLLKVHLQLHGFSVFIDVEKLEAGKFEDKLIQSVMGARNFVLVLSPGALDKCMQDHDCKDWVHKEIVTALSCGKNIVPIIDGFEWPEPQVLPEDMQAVLTFNGIKWSHEYQEATIEKIIRFLQGRSSRDSSAGSDTSLEGAAPMGPT

Substrate: NC(=O)c1ccc[n+]([C@@H]2O[C@H](COP(=O)([O-])OP(=O)(O)OC[C@H]3O[C@@H](n4cnc5c(N)ncnc54)[C@H](O)[C@@H]3O)[C@@H](O)[C@H]2O)c1
Assay: purified protein

Protein	Km [µM]	kcat [min⁻¹]
B1	28	411
B2	33	219
